Data published in patent WO2015137441A1.

Target: myrNAP22 (myristoylated NAP22), rat (rat) (UniProt Q05175)
Test: immunoprecipitation with control beads, supernatant on SDS-PAGE, Coomassie staining

UniProt Q05175, sequence (Q05175 2-220 limits assumed): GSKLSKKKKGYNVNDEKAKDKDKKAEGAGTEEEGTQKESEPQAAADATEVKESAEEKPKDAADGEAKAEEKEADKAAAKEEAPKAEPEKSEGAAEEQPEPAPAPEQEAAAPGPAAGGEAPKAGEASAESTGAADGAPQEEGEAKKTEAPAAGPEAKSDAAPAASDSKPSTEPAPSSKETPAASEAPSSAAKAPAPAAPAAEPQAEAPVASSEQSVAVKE

Question: With “control clone (an antibody clone randomly cloned from the library) (scFv)” as the substance, how does the signal intensity of myrNAP22 left in the supernatant (lane 2) relative to input (lane 3) read?
Answer: 90%
